Tests used:
[1] = target: T1, ER-α36 expressed on cell surfaces of MCF7 cells (Homo sapiens, UniProt P03372); assay: FACS analysis of binding to cell surface ER-α36; details: mouse IgG2b isotype control
T1 construct: endogenous in cells; host or cells: K562, MCF7, SKBR3, MHCC97H
T1 sequence (P03372 1-310 isoform P03372-4): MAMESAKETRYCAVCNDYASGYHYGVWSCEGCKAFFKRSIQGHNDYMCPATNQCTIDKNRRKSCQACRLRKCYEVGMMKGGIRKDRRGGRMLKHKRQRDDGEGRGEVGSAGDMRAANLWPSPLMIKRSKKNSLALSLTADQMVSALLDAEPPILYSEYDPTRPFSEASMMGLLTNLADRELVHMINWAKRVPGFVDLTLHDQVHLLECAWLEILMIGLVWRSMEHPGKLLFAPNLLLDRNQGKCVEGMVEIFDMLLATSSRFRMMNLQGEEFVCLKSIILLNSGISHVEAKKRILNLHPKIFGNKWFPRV
Experimental: (§1) Also examined were the binding of SNGmB1 to a series of human cancer cell lines including K-562 cell, a cell line derived from chronic myeloid leukemia patient; MCF7: a breast cancer cell line expressing both ER-α66 and ER-α36; SKBR3 (ATCC): a breast cancer cell line expressing high levels of HER2; and MHCC97H (ATCC): a highly metastatic hepatocellular carcinoma cell line.
(§2) These cell lines (K562, MCF7, SKBR3, MHCC97H) were cultured in their respective medium to 90% confluence and then the cells were washed with PBS, followed by pretreatment with 0.5 mM EDTA (adherent cell lines) to facilitate removal from substrate. The cells are then collected and centrifuged at 2500 rpm for 5 minutes at 4° C. After counting the cell number, the cells were then resuspended in the block buffer (10% normal goat serum, Invitrogen) to a final concentration of 5-10×10^6 cells/ml, and 100 μl of cells (5×10^5) were transferred to a 1.5 ml EP tube for staining. All those tubes (cells in block buffer) were then laid in a revolver (Grant) for 30 minutes at 4° C. After that the cells were centrifuged at 2500 rpm for 5 minutes at 4° C., the supernatant was discarded, 100 μl of the primary antibody was then added to (1-30 μg/ml final concentration, SNGmB1 or mouse IgG2b isotope control) and incubated in a revolver at 4° C. for 1 hr. The cells were then collected by centrifugation at 2500 rpm for 5 minutes at 4° C. and washed 2 times with PBS solution. The goat anti mouse IgG (H+L) FITC secondary antibody (Invitrogen) were then added at a dilution range of 1:400-800 followed by incubation in a revolver at 4° C. for 1 hr and kept in dark. Following this incubation, free antibody was the removed by washing the cells twice with PBS and the cells were then fixed in 1% paraformaldehyde at room temperature for 10 min and before resuspending the cells in 200-400 μl PBS with 5 μl 7-AAD (BD Biosciences) added for final flow cytometric analysis.
(§3) In FIG. 5A, the “Geom. Mean” refers to Geometric mean fluorescence intensity. […] The cell line was incubated with the SNGmB1 antibody and the binding was tested, according to the similar procedure described above. Mouse IgG2b was used as isotype control.

[2] = target: T2, ER-α36 expressed on cell surfaces of MHCC97H cells (Homo sapiens, UniProt P03372); assay: FACS analysis of binding to cell surface ER-α36; details: mouse IgG2b isotype control
T2 construct: endogenous in cells; host or cells: K562, MCF7, SKBR3, MHCC97H
T2 sequence (P03372 1-310 isoform P03372-4): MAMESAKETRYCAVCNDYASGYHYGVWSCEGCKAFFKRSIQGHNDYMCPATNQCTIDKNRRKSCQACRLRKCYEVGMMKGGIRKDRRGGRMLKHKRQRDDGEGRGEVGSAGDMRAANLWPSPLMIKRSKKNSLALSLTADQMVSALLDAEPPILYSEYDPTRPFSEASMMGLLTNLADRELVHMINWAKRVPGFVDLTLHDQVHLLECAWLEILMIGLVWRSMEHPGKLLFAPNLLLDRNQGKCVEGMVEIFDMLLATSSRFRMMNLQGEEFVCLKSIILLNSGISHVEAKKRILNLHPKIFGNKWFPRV
Experimental: as §1, §2, §3

[3] = target: T3, ER-α36 expressed on cell surfaces of SKBR3 cells (Homo sapiens, UniProt P03372); assay: FACS analysis of binding to cell surface ER-α36; details: mouse IgG2b isotype control
T3 construct: endogenous in cells; host or cells: K562, MCF7, SKBR3, MHCC97H
T3 sequence (P03372 1-310 isoform P03372-4): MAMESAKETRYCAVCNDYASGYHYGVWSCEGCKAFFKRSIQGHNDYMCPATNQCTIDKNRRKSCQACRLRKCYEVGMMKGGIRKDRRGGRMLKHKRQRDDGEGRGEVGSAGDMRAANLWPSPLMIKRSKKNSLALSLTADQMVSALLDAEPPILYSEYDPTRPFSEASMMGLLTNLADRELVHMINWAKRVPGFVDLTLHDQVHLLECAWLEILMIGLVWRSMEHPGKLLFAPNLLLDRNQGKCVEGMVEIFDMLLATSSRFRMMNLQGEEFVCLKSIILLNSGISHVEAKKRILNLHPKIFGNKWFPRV
Experimental: as §1, §2, §3

[4] = target: T4, ER-α36 expressed on cell surfaces of K562 cells (Homo sapiens, UniProt P03372); assay: FACS analysis of binding to cell surface ER-α36; details: 100, 20, 4, 0.8, 0.16, 0.032 μg/ml; mouse IgG2b isotype control
T4 construct: endogenous in cells; host or cells: K562, MCF7, SKBR3, MHCC97H
T4 sequence (P03372 1-310 isoform P03372-4): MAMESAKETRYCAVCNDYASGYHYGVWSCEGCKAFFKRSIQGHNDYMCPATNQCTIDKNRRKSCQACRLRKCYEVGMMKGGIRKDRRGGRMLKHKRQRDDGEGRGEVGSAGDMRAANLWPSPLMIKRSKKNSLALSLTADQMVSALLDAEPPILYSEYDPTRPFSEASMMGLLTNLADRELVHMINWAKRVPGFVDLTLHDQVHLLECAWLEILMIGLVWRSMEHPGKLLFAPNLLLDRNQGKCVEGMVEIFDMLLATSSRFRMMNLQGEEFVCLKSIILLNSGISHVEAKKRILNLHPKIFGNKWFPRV
Experimental: as §1, §2, §3

ER-α36 = target: T5, ER-α36 (Homo sapiens, UniProt P03372); assay: Biacore binding affinity of chimeric and humanized antibodies (Example 9)
T5 sequence (P03372 284-310 isoform P03372-4): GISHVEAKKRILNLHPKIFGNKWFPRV
Experimental: The humanized antibodies were purified and characterized using ELISA and Biacore for binding analysis.
The humanized antibodies were tested for their binding affinity to ER-α36.

binding to MCF7 cells (FACS) [1]: specific binding
binding to MHCC97H cells (FACS) [2]: specific binding
binding to SKBR3 cells (FACS) [3]: specific binding
binding to K562 cells (FACS) [4]: dose-dependent binding
Ka (ER-α36; listed as SNGmB1-20110709(IgG2b)): 2.12e+06 M⁻¹ s⁻¹
Ka (ER-α36; listed as SNGmB1-20111117(IgG2b)): 1.76e+06 M⁻¹ s⁻¹
B1: SNGmB1: mouse monoclonal anti-ER-α36 antibody (mIgG2b), light chain SEQ ID NO: 16, heavy chain SEQ ID NO: 18 (antibody, listed as Mus musculus)
heavy: QAYLQQSGAELVRPGASVKMSCKASGYTFTSHNMHWIKQTPRQGLEWIGAIHPVNGDTAYNQKFKGKATLTVDKSSSTAYLQLSSLTSEESAVYFCAREGYGSVDYWGQGTTLTVSSAKTTPPSVYPLAPGCGDTTGSSVTLGCLVKGYFPESVTVTWNSGSLSSSVHTFPALLQSGLYTMSSSVTVPSSTWPSQTVTCSVAHPASSTTVDKKLEPSGPISTINPCPPCKECHKCPAPNLEGGPSVFIFPPNIKDVLMISLTPKVTCVVVDVSEDDPDVQISWFVNNVEVHTAQTQTHREDYNSTIRVVSTLPIQHQDWMSGKEFKCKVNNKDLPSPIERTISKIKGLVRAPQVYILPPPAEQLSRKDVSLTCLVVGFNPGDISVEWTSNGHTEENYKDTAPVLDSDGSYFIYSKLNMKTSKWEKTDSFSCNVRHEGLKNYYLKKTISRSPGK
light: ETTVTQSPASLSMTIGEKVTIRCITSTDIDDDMNWYRKKPGQPPKLLISEGNTLRPGVPSRFSSSGYGTDFVFTIENMLSEDVADYYCLQSDNLPLTFGAGTKLELKRADAAPTVSIFPPSSEQLTSGGASVVCFLNNFYPKDINVKWKIDGSERQNGVLNSWTDQDSKDSTYSMSSTLTLTKDEYERHNSYTCEATHKTSTSPIVKSFNRNEC

— patent US10233249B2, “Antibodies and methods for treating estrogen receptor-associated diseases” (BEIJING SHENOGEN PHARMA GROUP LTD., priority 2013, dated 2019)
